Values joined by “and” are separate entries in the source; they are usually repeats but may differ in a detail not shown here. Equal entries are not always repeated. Where two headings read alike, the source gives them in different places. Values belong to the binder of their own block, whether it stands above or below them.
How the values were obtained:
CD24 (cell surface) [1] = molecular target: T1, CD24 (cell surface) (human); assay: FACS, NALM6
T1 chain: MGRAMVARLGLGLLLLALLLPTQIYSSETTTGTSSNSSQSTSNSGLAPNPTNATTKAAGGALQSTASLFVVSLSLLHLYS

CD24 (cell surface) [2] = molecular target: T1, CD24 (cell surface); assay: FACS, MDA-MB-468
CD24(27-56aa)-GST NEOX-4 [3] = molecular target: CD24(27-56aa)-GST NEOX-4 (human); assay: ELISA
CD24(27-56aa)-GST NEOX-4 [4] = molecular target: CD24(27-56aa)-GST NEOX-4 (human); assay: ELISA; remark: listed apart in the source
[5] = molecular target: T2, CD24 biotinylated (ACRO CD4-H82E9) (human, UniProt P25063); assay: SPR
T2 chain: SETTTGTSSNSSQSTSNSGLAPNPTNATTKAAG

CD24(27-56aa)-GST NEOX-4 [6] = molecular target: CD24(27-56aa)-GST NEOX-4 (human); assay: ELISA; remark: listed apart in the source

CD24(27-56aa)-GST NEOX-4 (human), sequence (chain, as listed by the source): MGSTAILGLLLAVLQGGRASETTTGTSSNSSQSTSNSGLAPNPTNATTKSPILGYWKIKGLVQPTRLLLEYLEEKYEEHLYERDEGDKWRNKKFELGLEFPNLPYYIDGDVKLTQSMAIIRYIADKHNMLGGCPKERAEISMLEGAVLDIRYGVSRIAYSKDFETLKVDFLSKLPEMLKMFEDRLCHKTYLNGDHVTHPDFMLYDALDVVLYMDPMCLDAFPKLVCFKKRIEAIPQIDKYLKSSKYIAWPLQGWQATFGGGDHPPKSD

- EC50 (CD24 (cell surface) [1]): 0.469 µg/mL and 0.217 µg/mL
B1: P6373 (antibody, V domains shown)
VH: EVKFEESGGGLVQPGGSIKLSCAASGVTFSEAWMDWVRQSPEKGLEWVAEIRDKPNSYVTYYAESVKGRFTISRDDSKSRVYLQMNNLRTEDTGIYYCTGAMDYWGQGTSVTVSS
VL: DIVMTQTPLSLSVTIGQPASISCKSSQSLLYSNGKTYLNWLQQRPGQSPKRLIYQVSKLDPGIPDRFSGSGSETDFTLKISRVEAEDLGIYYCMQGSSLPWTFGGGTKLEIKR

- EC50 (CD24 (cell surface) [2]): 1.21 µg/mL
- EC50 (CD24(27-56aa)-GST NEOX-4 [3]): 0.00443 µg/mL
- EC50 (CD24 (cell surface) [1]): 0.348 µg/mL
B2: huG14-217 (antibody, V domains shown)
VH: EVQLVESGGGLVKPGGSLRLSCAASGLTFSNYWGNWVRQAPGKGLEWVALIRLYSDNYAIHYAESVKGRFTISRDDSKSTVYLQMNSLKTEDTAVYYCTTGTDYWGQGTTVTVSS
VL: DVVMTQSPLSLPVTPGRPASISCKSSHSLLYSNGRTYLNWLLQKPGQSPQRLIYLVSKLDSGVPDRFSGSGSGTDFTLKISRVEAEDLGVYYCIQGTYFPYTFGQGTKLEIK

- EC50 (CD24(27-56aa)-GST NEOX-4 [4]): 0.0784 µg/mL
B3: huG14-108 (antibody, V domains shown)
VH: EVQLVESGGGLVKPGGSLRLSCAASGLTFSNYWMNWVRQAPGKGLEWVALIRLYSDNYAIHYAESVKGRFTISRDDSKSTVYLQMNSLKTEDTAVYYCTTGTDYWGQGTTVTVSS
VL: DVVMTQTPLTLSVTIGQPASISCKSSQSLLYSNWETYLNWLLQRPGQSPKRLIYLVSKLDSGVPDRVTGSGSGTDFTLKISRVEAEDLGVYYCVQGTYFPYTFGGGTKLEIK

- EC50 (CD24(27-56aa)-GST NEOX-4 [4]): 0.0153 µg/mL
B4: huG14-110 (antibody, V domains shown)
VH: EVQLVESGGGLVKPGGSLRLSCAASGLTFSNYWMNWVRQAPGKGLEWVALIRLYSDNYAIHYAESVKGRFTISRDDSKSTVYLQMNSLKTEDTAVYYCTTGTDNWGQGTTVTVSS
VL: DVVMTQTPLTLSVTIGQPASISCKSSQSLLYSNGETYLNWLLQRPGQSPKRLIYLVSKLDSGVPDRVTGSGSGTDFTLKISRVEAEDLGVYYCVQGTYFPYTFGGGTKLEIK

- EC50 (CD24 (cell surface) [2]): 0.57 µg/mL
- EC50 (CD24 (cell surface) [1]): 0.391 µg/mL
B5: huG14-131 (antibody, V domains shown)
VH: EVQLVESGGGLVKPGGSLRLSCAASGLTFSNYWMNWVRQAPGKGLEWVALIRLYSDNYAIHYAESVKGRFTISRDDSKSTVYLQMNSLKTEDTAVYYCTTGTDNWGQGTTVTVSS
VL: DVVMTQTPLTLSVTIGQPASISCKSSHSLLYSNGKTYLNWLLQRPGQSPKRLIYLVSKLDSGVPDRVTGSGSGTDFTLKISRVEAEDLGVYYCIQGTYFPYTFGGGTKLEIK

- Kd [5]: 1.52 nM
B6: huG14-124-3 (antibody, V domains shown)
VH: EVQLVESGGGLVKPGGSLRLSCAASGLTFSNYWGNWVRQAPGKGLEWVALIRLYSDNYAIHYAESVKGRFTISRDDSKSTVYLQMNSLKTEDTAVYYCTTGTDYWGQGTTVTVSS
VL: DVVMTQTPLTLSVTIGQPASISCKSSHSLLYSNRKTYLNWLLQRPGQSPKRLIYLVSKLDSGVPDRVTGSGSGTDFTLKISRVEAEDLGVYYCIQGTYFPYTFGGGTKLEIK

- EC50 (CD24(27-56aa)-GST NEOX-4 [4]): 0.0157 µg/mL
B7: huG14-106 (antibody, V domains shown)
VH: EVQLVESGGGLVKPGGSLRLSCAASGLTFSNYWMNWVRQAPGKGLEWVALIRLYSDNYAIHYAESVKGRFTISRDDSKSTVYLQMNSLKTEDTAVYYCTTGTDYWGQGTTVTVSS
VL: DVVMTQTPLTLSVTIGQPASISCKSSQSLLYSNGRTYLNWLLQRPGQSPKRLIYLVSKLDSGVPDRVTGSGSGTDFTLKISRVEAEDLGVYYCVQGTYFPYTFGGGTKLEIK

- EC50 (CD24(27-56aa)-GST NEOX-4 [4]): 0.0183 µg/mL
B8: huG14-104 (antibody, V domains shown)
VH: EVQLVESGGGLVKPGGSLRLSCAASGLTFSNYWMNWVRQAPGKGLEWVALIRLYSDNYAIHYAESVKGRFTISRDDSKSTVYLQMNSLKTEDTAVYYCTTGTDYWGQGTTVTVSS
VL: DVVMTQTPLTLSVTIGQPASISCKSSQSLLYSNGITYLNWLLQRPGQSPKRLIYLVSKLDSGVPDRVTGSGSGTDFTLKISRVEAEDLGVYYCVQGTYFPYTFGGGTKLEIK

- EC50 (CD24(27-56aa)-GST NEOX-4 [3]): 0.177 µg/mL
- EC50 (CD24(27-56aa)-GST NEOX-4 [4]): 0.136 µg/mL and 0.128 µg/mL
- EC50 (CD24(27-56aa)-GST NEOX-4 [6]): 0.154 µg/mL
B9: huG14-1 (antibody, V domains shown)
VH: EVQLVESGGGLVKPGGSLRLSCAASGLTFSNYWMNWVRQAPGKGLEWVALIRLYSDNYAIHYAESVKGRFTISRDDSKSTVYLQMNSLKTEDTAVYYCTTGTDYWGQGTTVTVSS
VL: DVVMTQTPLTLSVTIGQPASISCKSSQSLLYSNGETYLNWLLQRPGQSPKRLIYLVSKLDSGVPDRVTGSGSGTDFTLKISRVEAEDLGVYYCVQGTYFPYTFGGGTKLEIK

- EC50 (CD24(27-56aa)-GST NEOX-4 [4]): 0.0494 µg/mL
B10: huG14-107 (antibody, V domains shown)
VH: EVQLVESGGGLVKPGGSLRLSCAASGLTFSNYWMNWVRQAPGKGLEWVALIRLYSDNYAIHYAESVKGRFTISRDDSKSTVYLQMNSLKTEDTAVYYCTTGTDYWGQGTTVTVSS
VL: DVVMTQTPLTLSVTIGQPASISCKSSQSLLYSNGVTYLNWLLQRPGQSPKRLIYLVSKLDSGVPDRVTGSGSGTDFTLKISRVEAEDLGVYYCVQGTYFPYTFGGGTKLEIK

- EC50 (CD24 (cell surface) [2]): 0.484 µg/mL
- EC50 (CD24(27-56aa)-GST NEOX-4 [3]): 0.00621 µg/mL
- EC50 (CD24 (cell surface) [1]): 0.235 µg/mL
B11: huG14-232 (antibody, V domains shown)
VH: EVQLVESGGGLVKPGGSLRLSCAASGLTFSNYWGNWVRQAPGKGLEWVALIRLYSDNYAIHYAESVKGRFTISRDDSKSTVYLQMNSLKTEDTAVYYCTTGTDNWGQGTTVTVSS
VL: DVVMTQSPLSLYVTPGRPASISCKSSHSLLYSNGRTYLNWLLQKPGQSPQRLIYLVSKLDSGVPDRFSGSGSGTDFTLKISRVEAEDLGVYYCIQGTYFPYTFGQGTKLEIK

- Kd [5]: 2.54 nM
B12: huG14-124-6 (antibody, V domains shown)
VH: EVQLVESGGGLVKPGGSLRLSCAASGLTFSNYWGNWVRQAPGKGLEWVALIRLYSDNYAIHYAESVKGRFTISRDDSKSTVYLQMNSLKTEDTAVYYCTTGTDYWGQGTTVTVSS
VL: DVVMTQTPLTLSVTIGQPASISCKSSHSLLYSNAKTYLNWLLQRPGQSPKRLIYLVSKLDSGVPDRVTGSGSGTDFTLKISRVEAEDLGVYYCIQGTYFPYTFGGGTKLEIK

- EC50 (CD24(27-56aa)-GST NEOX-4 [4]): 0.00961 µg/mL
B13: huG14-102 (antibody, V domains shown)
VH: EVQLVESGGGLVKPGGSLRLSCAASGLTFSNYWMNWVRQAPGKGLEWVALIRLYSDNYAIHYAESVKGRFTISRDDSKSTVYLQMNSLKTEDTAVYYCTTGTDYWGQGTTVTVSS
VL: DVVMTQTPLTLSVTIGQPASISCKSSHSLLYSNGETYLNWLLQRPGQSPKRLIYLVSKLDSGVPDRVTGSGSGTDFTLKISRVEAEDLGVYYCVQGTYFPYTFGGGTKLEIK

- EC50 (CD24(27-56aa)-GST NEOX-4 [4]): 0.00813 µg/mL
B14: huG14-103 (antibody, V domains shown)
VH: EVQLVESGGGLVKPGGSLRLSCAASGLTFSNYWMNWVRQAPGKGLEWVALIRLYSDNYAIHYAESVKGRFTISRDDSKSTVYLQMNSLKTEDTAVYYCTTGTDYWGQGTTVTVSS
VL: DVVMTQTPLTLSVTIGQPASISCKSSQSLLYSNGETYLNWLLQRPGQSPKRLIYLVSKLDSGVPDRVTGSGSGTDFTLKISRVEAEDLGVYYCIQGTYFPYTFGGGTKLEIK

- Kd [5]: 1.07 nM
B15: huG14-124-7 (antibody, V domains shown)
VH: EVQLVESGGGLVKPGGSLRLSCAASGLTFSNYWGNWVRQAPGKGLEWVALIRLYSDNYAIHYAESVKGRFTISRDDSKSTVYLQMNSLKTEDTAVYYCTTGTDYWGQGTTVTVSS
VL: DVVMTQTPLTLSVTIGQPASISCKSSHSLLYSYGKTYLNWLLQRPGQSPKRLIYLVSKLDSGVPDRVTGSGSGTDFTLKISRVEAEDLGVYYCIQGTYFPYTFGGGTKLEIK

- Kd [5]: 2.08 nM
B16: huG14-124-1 (antibody, V domains shown)
VH: EVQLVESGGGLVKPGGSLRLSCAASGLTFSNYWGNWVRQAPGKGLEWVALIRLYSDNYAIHYAESVKGRFTISRDDSKSTVYLQMNSLKTEDTAVYYCTTGTDYWGQGTTVTVSS
VL: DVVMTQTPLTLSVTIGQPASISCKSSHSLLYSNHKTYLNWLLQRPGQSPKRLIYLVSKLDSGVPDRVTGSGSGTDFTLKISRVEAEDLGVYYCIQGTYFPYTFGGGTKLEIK

- EC50 (CD24 (cell surface) [2]): 0.63 µg/mL
- EC50 (CD24(27-56aa)-GST NEOX-4 [3]): 0.00889 µg/mL
- EC50 (CD24 (cell surface) [1]): 0.35 µg/mL
B17: huG14-230 (antibody, V domains shown)
VH: EVQLVESGGGLVKPGGSLRLSCAASGLTFSNYWGNWVRQAPGKGLEWVALIRLYSDNYAIHYAESVKGRFTISRDDSKSTVYLQMNSLKTEDTAVYYCTTGTDNWGQGTTVTVSS
VL: DVVMTQSPLSLPVTPGRPASISCKSSHSLLYSNGKTYLNWLLQKPGQSPQRLIYLVSKLDSGVPDRFSGSGSGTDFTLKISRVEAEDLGVYYCIQGTYFPYTFGQGTKLEIK

- EC50 (CD24 (cell surface) [2]): 0.676 µg/mL
- EC50 (CD24(27-56aa)-GST NEOX-4 [3]): 0.0044 µg/mL
- EC50 (CD24 (cell surface) [1]): 0.431 µg/mL
B18: huG14-216 (antibody, V domains shown)
VH: EVQLVESGGGLVKPGGSLRLSCAASGLTFSNYWGNWVRQAPGKGLEWVALIRLYSDNYAIHYAESVKGRFTISRDDSKSTVYLQMNSLKTEDTAVYYCTTGTDYWGQGTTVTVSS
VL: DVVMTQSPLSLPVTPGRPASISCKSSHSLLYSNGKTYLNWLLQKPGQSPQRLIYLVSKLDSGVPDRFSGSGSGTDFTLKISRVEAEDLGVYYCIQGTYFPYTFGQGTKLEIK

- EC50 (CD24(27-56aa)-GST NEOX-4 [4]): 0.0293 µg/mL
B19: huG14-111 (antibody, V domains shown)
VH: EVQLVESGGGLVKPGGSLRLSCAASGLTFSNYWMNWVRQAPGKGLEWVALIRLYSDNYAIHYAESVKGRFTISRDDSKSTVYLQMNSLKTEDTAVYYCTTGTDFWGQGTTVTVSS
VL: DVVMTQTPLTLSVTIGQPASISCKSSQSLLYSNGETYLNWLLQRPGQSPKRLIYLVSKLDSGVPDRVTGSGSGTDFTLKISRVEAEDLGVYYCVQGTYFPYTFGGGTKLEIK

- EC50 (CD24 (cell surface) [2]): 0.684 µg/mL
- EC50 (CD24 (cell surface) [1]): 0.443 µg/mL
- EC50 (CD24(27-56aa)-GST NEOX-4 [6]): 0.00619 µg/mL
B20: huG14-125 (antibody, V domains shown)
VH: EVQLVESGGGLVKPGGSLRLSCAASGLTFSNYWGNWVRQAPGKGLEWVALIRLYSDNYAIHYAESVKGRFTISRDDSKSTVYLQMNSLKTEDTAVYYCTTGTDYWGQGTTVTVSS
VL: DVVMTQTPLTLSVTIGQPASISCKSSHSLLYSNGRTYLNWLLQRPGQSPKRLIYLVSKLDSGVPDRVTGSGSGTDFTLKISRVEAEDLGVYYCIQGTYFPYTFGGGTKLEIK

- Kd [5]: 2.13 nM
B21: huG14-124-5 (antibody, V domains shown)
VH: EVQLVESGGGLVKPGGSLRLSCAASGLTFSNYWGNWVRQAPGKGLEWVALIRLYSDNYAIHYAESVKGRFTISRDDSKSTVYLQMNSLKTEDTAVYYCTTGTDYWGQGTTVTVSS
VL: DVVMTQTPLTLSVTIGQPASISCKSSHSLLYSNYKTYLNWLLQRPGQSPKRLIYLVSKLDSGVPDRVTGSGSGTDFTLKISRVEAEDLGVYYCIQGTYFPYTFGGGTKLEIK

Source: patent publication US20260347496 (published 2026)
